# Test results reported in US20150299277A1 (published 2015).
# B1: Escherichia coli-expressed N-terminal domain human PTX3 wherein the 47th, 49th, 103rd cysteine residues were replaced with serine residue (other)
# chain: ENLYFQGENSDDYDLMYVNLDNEIDNGLHPTEDPTPSDSGQEHSEWDKLFIMLENSQMRERMLLQATDDVLRGELQRLREELGRLAESLARPSAPGAPAEARLTSALDELLQATRDAGRRLARMEGAEAQRPEEAGRALAAVLEELRQTRADLHAVQGWAARSWLPAG
# B2: Myc- and His-tagged C-terminal domain human PTX3 (animal cell expressed) (other)
# chain: CETAILFPMRSKKIFGSVHPVRPMRLESFSACIWVKATDVLNKTILFSYGTKRNPYEIQLYLSYQSIVFVVGGEENKLVAEAMVSLGRWTHLCGTWNSEEGLTSLWVNGELAATTVEMATGHIVPEGGILQIGQEKNGCCVGGGFDETLAFSGRLTGFNIWDSVLSNEEIRETGGAESCHIRGNIVGWGVTEIQPHGGAQYVS
# Experiments:
# [1] = target: T1, recombinant human histone H4 (UniProt P62805 2-103); assay: SPR; Ca2+
# [2] = target: T2, recombinant human histone H3 (UniProt P68431 2-136); assay: SPR; Ca2+
# [3] = target: recombinant human histone H2B (human); assay: SPR; Ca2+
# [4] = target: T2, recombinant human histone H3; assay: SPR; EDTA/EGTA
# [5] = target: T1, recombinant human histone H4; assay: SPR; EDTA/EGTA
binder,measurement,setting,value
B1,Kd,[1],1.21 nM
same,Kd,[2],0.354 nM
same,Kd,[3],10.9 nM
same,Kd,[4],1.95 nM
B2,Kd,[1],1.04 nM
same,Kd,[2],5.64 nM
same,Kd,[5],322 nM
same,Kd,[4],4.77 nM
